Assay results from patent publication US20200032346.

Key:
[1] = molecular target: HisTAG-EGFR^aa1-650, P00533
[2] = molecular target: HisTAG-ΔEGFR N-terminusY88A, P00533
[3] = molecular target: T1, mutant peptide 3 (FLKTIQEVAGAVLIALNTVER)
T1 chain: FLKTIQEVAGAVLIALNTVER

[4] = molecular target: T2, peptide 1 (EVVLGNLEITYVQRNYDLSFL)
T2 chain: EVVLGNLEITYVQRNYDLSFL

[5] = molecular target: T3, peptide 10 (QMDVNPEGKYSFGATCVKK)
T3 chain: QMDVNPEGKYSFGATCVKK

[6] = molecular target: T4, peptide 11 (ATCVKKCPRNYVVTDHGSCVR)
T4 chain: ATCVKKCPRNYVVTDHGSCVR

[7] = molecular target: T5, peptide 12 (SCVRACGADSYEMEEDGVRKC)
T5 chain: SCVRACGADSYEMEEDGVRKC

[8] = molecular target: T6, peptide 13 (VIISGNKNLCYANTINWKKLF)
T6 chain: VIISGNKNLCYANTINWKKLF

[9] = molecular target: T7, peptide 14 (GPDNCIQCAHYIDGPHCVKTC)
T7 chain: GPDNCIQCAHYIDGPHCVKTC

[10] = molecular target: T8, peptide 15 (MGENNTLVWKYADAGHVCHLC)
T8 chain: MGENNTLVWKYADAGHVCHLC

[11] = molecular target: T9, peptide 16 (VCHLCHPNCTYGCTGPGLEGC)
T9 chain: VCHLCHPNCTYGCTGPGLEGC

[12] = molecular target: T10, peptide 2 (NLEITYVQRNYDLSFLKTIQE)
T10 chain: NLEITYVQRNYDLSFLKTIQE

[13] = molecular target: T11, peptide 3 (FLKTIQEVAGYVLIALNTVER)
T11 chain: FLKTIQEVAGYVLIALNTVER

[14] = molecular target: T12, peptide 4 (ENLQIIRGNMYYENSYALAVL)
T12 chain: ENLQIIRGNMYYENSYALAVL

[15] = molecular target: T13, peptide 5 (NLQIIRGNMYYENSYALAVLS)
T13 chain: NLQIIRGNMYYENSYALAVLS

[16] = molecular target: T14, peptide 6 (IRGNMYYENSYALAVLSNYDA)
T14 chain: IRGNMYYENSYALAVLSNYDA

[17] = molecular target: T15, peptide 7 (NSYALAVLSNYDANKTGLKEL)
T15 chain: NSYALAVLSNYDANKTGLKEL

[18] = molecular target: T16, peptide 8 (CKDTCPPLMLYNPTTYQMDVN)
T16 chain: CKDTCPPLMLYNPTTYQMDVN

[19] = molecular target: T17, peptide 9 (PPLMLYNPTTYQMDVNPEGKY)
T17 chain: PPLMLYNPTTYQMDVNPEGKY

B1: GST-MAN2A1-FER (protein)
chain: MKLSRQFTVFGSAIFCVVIFSLYLMLDRGHLDYPRNPRREGSFPQGQLSMLQEKIDHLERLLAENNEIISNIRDSVINLSESVEDGPKSSQSNFSQGAGSHLLPSQLSLSVDTADCLFASQSGSHNSDVQMLDVYSLISFDNPDGGVWKQGFDITYESNEWDTEPLQVFVVPHSHNDPGWLKTFNDYFRDKTQYIFNNMVLKLKEDSRRKFIWSEISYLSKWWDIIDIQKKDAVKSLIENGQLEIVTGGWVMPDEATPHYFALIDQLIEGHQWLENNIGVKPRSGWAIDPFGHSPTMAYLLNRAGLSHMLIQRVHYAVKKHFALHKTLEFFWRQNWDLGSVTDILCHMMPFYSYDIPHTCGPDPKICCQFDFKRLPGGRFGCPWGVPPETIHPGNVQSRARMLLDQYRKKSKLFRTKVLLAPLGDDFRYCEYTEWDLQFKNYQQLFDYMNSQSKFKVKIQFGTLSDFFDALDKADETQRDKGQSMFPVLSGDFFTYADRDDHYWSGYFTSRPFYKRMDRIMESHLRAAEILYYFALRQAHKYKINKFLSSSLYTALTEARRNLGLFQHHDAITGTAKDWVVVDYGTRLFHSLMVLEKIIGNSAFLLILKDKLTYDSYSPDTFLEMDLKQKSQDSLPQKNIIRLSAEPRYLVVYNPLEQDRISLVSVYVSSPTVQVFSASGKPVEVQVSAVWDTANTISETAYEGNFGEVYKGTLKDKTSVAVKTCKEDLPQELKIKFLQEAKILKQYDHPNIVKLIGVCTQRQPVYIIMELVSGGDFLTFLRRKKDELKLKQLVKFSLDAAAGMLYLESKNCIHRDLAARNCLVGENNVLKISDFGMSRQEDGGVYSSSGLKQIPIKWTAPEALNYGRYSSESDVWSFGILLWETFSLGVCPYPGMTNQQAREQVERGYRMSAPQHCPEDISKIMMKCWDYKPENRPKFSELQKELTIIKRKLT
[1]
  in vitro kinase assay, phosphorylation of the substrate: GST-MAN2A1-FER phosphorylated the recombinant HisTAG-EGFR^aa1-650 in an ATP dosage-dependent manner
[2]
  in vitro kinase assay, phosphorylation of the substrate: No phosphorylation was found when Y88 was mutated to alanine in EGFR N-terminus
[3]
  phosphorylation assay on synthetic peptide: mutant peptide was not phosphorylated by the fusion protein
  phosphorylation of HisTAG-ΔEGFR^aa1-650 by GST-MAN2A1-FER with an excessive amount of peptide: peptide 3, but not the mutant counterpart, partially blocked the phosphorylation of EGFR N-terminus by GST-MAN2A1-FER
[4]
  phosphorylation assay on synthetic peptide: only the sequence corresponding to FLKTIQEVAGYVLIALNTVER (peptide 3) in EGFR was phosphorylated by GST-MAN2A1-FER
[5]
  phosphorylation assay on synthetic peptide: only the sequence corresponding to FLKTIQEVAGYVLIALNTVER (peptide 3) in EGFR was phosphorylated by GST-MAN2A1-FER
[6]
  phosphorylation assay on synthetic peptide: only the sequence corresponding to FLKTIQEVAGYVLIALNTVER (peptide 3) in EGFR was phosphorylated by GST-MAN2A1-FER
[7]
  phosphorylation assay on synthetic peptide: only the sequence corresponding to FLKTIQEVAGYVLIALNTVER (peptide 3) in EGFR was phosphorylated by GST-MAN2A1-FER
[8]
  phosphorylation assay on synthetic peptide: only the sequence corresponding to FLKTIQEVAGYVLIALNTVER (peptide 3) in EGFR was phosphorylated by GST-MAN2A1-FER
[9]
  phosphorylation assay on synthetic peptide: only the sequence corresponding to FLKTIQEVAGYVLIALNTVER (peptide 3) in EGFR was phosphorylated by GST-MAN2A1-FER
[10]
  phosphorylation assay on synthetic peptide: only the sequence corresponding to FLKTIQEVAGYVLIALNTVER (peptide 3) in EGFR was phosphorylated by GST-MAN2A1-FER
[11]
  phosphorylation assay on synthetic peptide: only the sequence corresponding to FLKTIQEVAGYVLIALNTVER (peptide 3) in EGFR was phosphorylated by GST-MAN2A1-FER
[12]
  phosphorylation assay on synthetic peptide: only the sequence corresponding to FLKTIQEVAGYVLIALNTVER (peptide 3) in EGFR was phosphorylated by GST-MAN2A1-FER
[13]
  phosphorylation assay on synthetic peptide: only the sequence corresponding to FLKTIQEVAGYVLIALNTVER (peptide 3) in EGFR was phosphorylated by GST-MAN2A1-FER
  phosphorylation of HisTAG-ΔEGFR^aa1-650 by GST-MAN2A1-FER with an excessive amount of peptide: peptide 3, but not the mutant counterpart, partially blocked the phosphorylation of EGFR N-terminus by GST-MAN2A1-FER
[14]
  phosphorylation assay on synthetic peptide: only the sequence corresponding to FLKTIQEVAGYVLIALNTVER (peptide 3) in EGFR was phosphorylated by GST-MAN2A1-FER
[15]
  phosphorylation assay on synthetic peptide: only the sequence corresponding to FLKTIQEVAGYVLIALNTVER (peptide 3) in EGFR was phosphorylated by GST-MAN2A1-FER
[16]
  phosphorylation assay on synthetic peptide: only the sequence corresponding to FLKTIQEVAGYVLIALNTVER (peptide 3) in EGFR was phosphorylated by GST-MAN2A1-FER
[17]
  phosphorylation assay on synthetic peptide: only the sequence corresponding to FLKTIQEVAGYVLIALNTVER (peptide 3) in EGFR was phosphorylated by GST-MAN2A1-FER
[18]
  phosphorylation assay on synthetic peptide: only the sequence corresponding to FLKTIQEVAGYVLIALNTVER (peptide 3) in EGFR was phosphorylated by GST-MAN2A1-FER
[19]
  phosphorylation assay on synthetic peptide: only the sequence corresponding to FLKTIQEVAGYVLIALNTVER (peptide 3) in EGFR was phosphorylated by GST-MAN2A1-FER
